PMC9579148

These substances were tested against SARS-CoV-2 main protease M^pro (untagged, native termini) (SARS-CoV-2) (UniProt P0DTD1) (assay: ITC).
“compound 4 (acetyl-Gly-Phe-His aldehyde, tripeptide derivative of AT1001)” gave a Kd of 640 nM, a dH of -12.7 kcal/mol and a stoichiometry N of 1.04. “compound 57 (BOC-Gly-Phe-His aldehyde) (peptide)” gave a Kd of 442 nM, a dH of -14.5 kcal/mol and a stoichiometry N of 0.991. With “compound 58 (octanoyl-Gly-Phe-His aldehyde) (peptide)” the Kd was 425 nM, the dH was -16.4 kcal/mol and the stoichiometry N was 0.966.
